In this assay the target is call3_human CALML3 (UniProt P27482).
Chain of call3_human CALML3 (P27482 whole entry): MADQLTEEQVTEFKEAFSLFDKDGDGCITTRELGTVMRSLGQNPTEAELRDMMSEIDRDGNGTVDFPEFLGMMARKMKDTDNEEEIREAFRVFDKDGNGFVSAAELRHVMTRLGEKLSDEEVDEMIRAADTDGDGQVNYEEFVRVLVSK

With “Unconventional myosin-X (Homo sapiens), Q9HD67 F795A”, the “effect of a mutation on the interaction” value is recorded as “disrupting interaction”.

For the origin of these results see IntAct's records for PubMed 18570893.
